According to article PMC5897525 (Nature Communications, 2018):

Target: T1, natural Fel d 1 (Felis catus, UniProt P30438;P30440)
T1 construct: Fel d 1 Chain 1, cat, of the natural Fel d 1 heterodimer; Fel d 1 Chain 2, cat, of the natural Fel d 1 heterodimer; also called nFel d 1; source: bought: Indoor Biotech, Catalog #LTN-FD-1
Experiment: SPR; Biacore T200; REGN1909 (94-163 RU) captured on a goat anti-human Fcγ coupled surface; nFel d 1 or rFel d 1.mmh injected in 2-fold dilutions; 10 mM HEPES, 150 mM NaCl, 3 mM MgCl2, 3 mM CaCl2, 0.05% P20, pH 7.4; 1:1 binding model with mass transport limitation
Conditions: both partners purified

binding result: binds
B1: REGN1909 (antibody, V domains shown)
VH: EVQLVESGGGLVQPGGSLRLSCAASGFTFSSYAMSWVRQAPGKGLEWVSAISGRGYNADYADSVKGRFTISRDNSKNTLYLQMNSLRAEDTAVYYCAKLEYFDYWGQGTLVTVSS
VL: DIQMTQSPSTLSASVGDRVTITCRASQSISSWLAWYQQKPGKAPKLLIYKASSLESGVPSRFSGSGSGTDFTLTISSLRPEDFATYYCQQYNSYPLTFGGGTKVEIK
